The text below walks through data of patent US20230212305A1 (published 2023).

Assay [1] deals with T1, human ABCG2 (human, UniProt Q9UNQ0 1-655).
T1 sequence: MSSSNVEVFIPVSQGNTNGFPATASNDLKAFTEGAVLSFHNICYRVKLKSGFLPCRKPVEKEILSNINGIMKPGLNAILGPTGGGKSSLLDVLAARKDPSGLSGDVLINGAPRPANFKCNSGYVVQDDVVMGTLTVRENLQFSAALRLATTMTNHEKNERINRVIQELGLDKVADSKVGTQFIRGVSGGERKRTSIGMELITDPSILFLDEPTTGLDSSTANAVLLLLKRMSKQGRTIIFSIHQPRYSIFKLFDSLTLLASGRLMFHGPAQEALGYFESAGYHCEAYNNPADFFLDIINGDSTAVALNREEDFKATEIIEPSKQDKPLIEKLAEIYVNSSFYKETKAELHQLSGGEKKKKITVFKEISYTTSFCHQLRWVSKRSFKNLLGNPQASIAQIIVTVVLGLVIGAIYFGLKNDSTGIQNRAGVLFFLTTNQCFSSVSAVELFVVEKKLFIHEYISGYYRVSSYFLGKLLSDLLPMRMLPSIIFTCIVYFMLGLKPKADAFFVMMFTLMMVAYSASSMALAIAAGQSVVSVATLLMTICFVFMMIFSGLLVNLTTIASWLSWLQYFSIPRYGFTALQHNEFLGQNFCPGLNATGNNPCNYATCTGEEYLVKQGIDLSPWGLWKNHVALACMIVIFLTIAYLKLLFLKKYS
The assay can be described thus: cell-based or functional assay.

Assay [2] deals with T1, human ABCG2. As to the kind of experiment: flow cytometry titration on 293T_ABCG2_OX cells; column Affinity for human ABCG2 (nM). In general terms: A flow cytometer gives signals particle by particle.
Description: (§1) Cell Binding Assays. Antibody binding to cells was evaluated by flow cytometry. […] After incubating cells on ice for 30 min, cells were washed twice with flow cytometry buffer. Bound antibody was detected with PE-labeled F(ab′)₂ fragment goat anti-human IgG (Jackson ImmunoResearch) and evaluated on an Attune NxT flow cytometer.
Assay [3] has as its target T2, cynomolgus ABCG2 (Macaca fascicularis) (Macaca fascicularis (cynomolgus), UniProt Q5MB13 1-654 (rhesus entry)).
T2 construct: also called cABCG2
T2 sequence: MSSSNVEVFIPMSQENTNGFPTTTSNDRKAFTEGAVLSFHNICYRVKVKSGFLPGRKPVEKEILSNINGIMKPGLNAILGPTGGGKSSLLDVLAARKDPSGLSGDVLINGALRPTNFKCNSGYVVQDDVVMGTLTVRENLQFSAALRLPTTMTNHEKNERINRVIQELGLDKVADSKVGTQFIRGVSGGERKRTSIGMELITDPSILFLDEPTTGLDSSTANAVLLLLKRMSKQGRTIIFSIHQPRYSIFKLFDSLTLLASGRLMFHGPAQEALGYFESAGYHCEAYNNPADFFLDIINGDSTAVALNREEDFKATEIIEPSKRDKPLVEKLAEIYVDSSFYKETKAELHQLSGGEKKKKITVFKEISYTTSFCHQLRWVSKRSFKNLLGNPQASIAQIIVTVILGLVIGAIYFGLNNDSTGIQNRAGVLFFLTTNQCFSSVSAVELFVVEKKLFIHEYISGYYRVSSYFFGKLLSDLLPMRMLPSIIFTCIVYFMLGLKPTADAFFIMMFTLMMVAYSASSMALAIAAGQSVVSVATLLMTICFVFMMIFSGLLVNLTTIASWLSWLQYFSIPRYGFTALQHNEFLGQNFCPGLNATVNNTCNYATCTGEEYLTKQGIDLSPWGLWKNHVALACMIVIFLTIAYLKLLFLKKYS
As to the kind of experiment: flow cytometry on cells expressing cynomolgus ABCG2; paragraph 395: non-significant binding = -.
Description: as §1

B1: anti-ABCG2 antibody 5D3 (antibody, V domains shown)
VH: QVQLQESGPGLVKPSQSLSLTCTVTGFSITSDYAWNWIRQFPGKKLEWMGYINFDGGTTYNPSLRGRISITRDTSKNQFFLQLRSVTPEDTATYYCATFYGAKGTLDYWGQGTSVTVSS
VL: DIVLTQSPSSFSVSLGDRVTISCKASGYILNRLAWYQQKPGNAPRLLISGATSLETGFPSRFSGTGSGKDYTLSISSLQTEDVGTYYCQQYWSTPWTFGGGTKLEIK
notes: also called clone 5D3
As a reminder, the Kd is the free concentration of one partner at which half of the binding sites on the other are occupied at equilibrium, for simple one-to-one binding. A high value points to lower affinity. Consider B1, for which the “IC50 of topotecan cytotoxicity in the presence of the antibody” value in assay [1] stood at 0.3 nM. Besides, in assay [2], the Kd turned out to be 5 nM.

B2: G2.247 mouse (antibody, human IgG1, V domains shown)
VH: EVRLQQSGAELVKPGASVKLSCKTSGFTFSNSYISWLKQKPRQSLEWIAWIYAGTGGTNYNQKFTGKAQLTVDTSSSTAYMQLSSLTSEDSAIYYCATYGNFLYAMDNWGQGTSVTVSS
VL: DIVMTQSPASLSASVGETVTITCRASGNIHNYLAWYQQKQGKSPQLLVYNTKTLADGVPSRFSGSGSGTQYSLKINSLQPEDFGSYYCQHFWSTPWTFGGGTKLEIK
notes: Variable regions cloned onto human IgG1 constant heavy chain and human kappa constant light chain
B2 gave a Kd in assay [2] of 59 nM. Besides, the binding result in assay [3] was “no binding”.

B3: G2.248 mouse (antibody, human IgG1, V domains shown)
VH: QVQLQQPGAELVKPGASVKLSCKTSGFTFSNSYISWLKQKPRQSLEWIAWIYAGTGGTNYNQKFTGKAQLTVDTSSSTAYMQLSSLTSEDSAIYYCATYGNFLYAMDNWGQGTSVTVSS
VL: DIQMKQSPASLSASVGETVTITCRASGNIHNYLAWYQQKQGKSPQLLVYNTKTLADGVPSRFSGSGSGTQYSLKINSLQPEDFGSYYCQHFWSTPWTFGGGTKLEIK
notes: as for B2
On to B3, for which the affinity in assay [2], expressed as Kd, was 125 nM. For the same molecule, the binding result in assay [3] is “no binding”.

B4: G2.252 mouse (antibody, human IgG1, V domains shown)
VH: EVQLQQSGAELVKPGASVKLSCKTSGFTFSNSYISWLKQKPRQSLEWIAWIYAGTGGTNYNQKFTGKAQLTVDTSSSTAYMQLSSLTSEDSAIYYCATYGNFLYAMDYWGQGTTLTVSS
VL: EIVLTQSPASLSASVGETVTITCRASGNIHNYLAWYQQKQGKSPQLLVYNAKTLADGVPSRFSGSGSGTQYSLKINSLQPEDFGSYYCQHFWSTPWTFGGGTKLEIK
notes: as for B2
For the molecule B4, in assay [2], the Kd is 347 nM. Further, the binding result in assay [3] is given as “no binding”.

B5: G2.255 mouse (antibody, human IgG1, V domains shown)
VH: EVMLVESGGALVKPGGSLKLSCAASGFTFSNNAMSWVRQTPETRLEWVATITGGGSYTYYPDSVKGRFTISRDNARNTLYLQMSSLRSEDTATYYCASPDGNYEGVLAYWGQGTLVTVSA
VL: DIQMNQSPSSLSASLGDRVTISCSASQGISNYLNWYQQKPDGTIKLLIYYTSTLHSGVPSRFSGSGSGTDYSLTISNLEPEDIATYYCQHYSSLPWTFGGGTKLEIK
notes: as for B2
For the molecule B5, the affinity in assay [2], expressed as Kd, was 363 nM. In assay [3], the binding result was “no binding”.

B6: G2.173 Humanized 2 (antibody, human IgG1, V domains shown)
VH: EVQLVQSGAEVKKPGASVKVSCKASGFNIKDDYVHWVRQAPGQGLEWIGRIDPAQGNTRYAPKFRGRATMTADTSISTAYMELSRLRSDDTAVYYCSPPLWVGGFAYWGQGTLVTVSS
VL: DVVMTQSPLSLPVTLGQPASISCRSSQSLVHSDVNTYLHWYQQRPGQSPRLLIYKVSNRFSGVPDRFSGSGSGTDFTLKISRVEAEDVGVYFCSQTTHVPYTFGGGTKLEIK
In the case of B6, the dissociation constant (Kd) in assay [2] stood at 273 nM. Besides, the binding result in assay [3] is given as “no binding”.

B7: G2.173 Humanized 3 (antibody, human IgG1, V domains shown)
VH: EVQLVQSGAEVKKPGASVKVSCKASGFNIKDDYVHWVRQAPGQGLEWIGRIDPASGNTRYAPKFRGRATMTADTSISTAYMELSRLRSDDTAVYYCSPPLWVGGFAYWGQGTLVTVSS
VL: DVVMTQSPLSLPVTLGQPASISCRSSQSLVHSDVNTYLHWYQQRPGQSPRLLIYKVSNRFSGVPDRFSGSGSGTDFTLKISRVEAEDVGVYFCSQTTHVPYTFGGGTKLEIK
In turn, B7 had a Kd in assay [2] of 44 nM. Further, in assay [3], the binding result was “no binding”.
